Results published in patent US20240415884A1 (UNIVERSITY OF PITTSBURGH OF THE COMMONWEALTH SYSTEM OF …, published 2024).

T1: human CD276 polypeptide (antigen of the ELISA of Clones #1-#8) (human, UniProt Q5ZPR3 29-461, limits assumed)
T1 construct: For panning it was fused at its C-terminus to human IgG1 Fc (CD276-Fc); also called B7-H3
T1 sequence: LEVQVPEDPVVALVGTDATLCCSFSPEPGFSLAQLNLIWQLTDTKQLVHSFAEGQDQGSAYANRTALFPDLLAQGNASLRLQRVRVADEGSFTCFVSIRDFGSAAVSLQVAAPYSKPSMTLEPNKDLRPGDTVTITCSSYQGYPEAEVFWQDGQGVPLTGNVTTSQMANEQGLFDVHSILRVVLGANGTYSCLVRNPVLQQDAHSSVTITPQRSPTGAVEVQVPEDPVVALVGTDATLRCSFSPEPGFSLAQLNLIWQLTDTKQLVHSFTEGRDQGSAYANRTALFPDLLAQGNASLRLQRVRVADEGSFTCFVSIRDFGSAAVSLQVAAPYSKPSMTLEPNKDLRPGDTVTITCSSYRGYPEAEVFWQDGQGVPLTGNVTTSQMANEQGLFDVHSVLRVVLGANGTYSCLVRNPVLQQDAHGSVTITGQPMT

T2: recombinant CD276 polypeptide that included four Ig-like extracellular domains (human, UniProt Q5ZPR3 29-466)
T2 construct: extracellular domain; also called 4Ig CD276 polypeptide; a CD276 polypeptide
T2 sequence (looked up): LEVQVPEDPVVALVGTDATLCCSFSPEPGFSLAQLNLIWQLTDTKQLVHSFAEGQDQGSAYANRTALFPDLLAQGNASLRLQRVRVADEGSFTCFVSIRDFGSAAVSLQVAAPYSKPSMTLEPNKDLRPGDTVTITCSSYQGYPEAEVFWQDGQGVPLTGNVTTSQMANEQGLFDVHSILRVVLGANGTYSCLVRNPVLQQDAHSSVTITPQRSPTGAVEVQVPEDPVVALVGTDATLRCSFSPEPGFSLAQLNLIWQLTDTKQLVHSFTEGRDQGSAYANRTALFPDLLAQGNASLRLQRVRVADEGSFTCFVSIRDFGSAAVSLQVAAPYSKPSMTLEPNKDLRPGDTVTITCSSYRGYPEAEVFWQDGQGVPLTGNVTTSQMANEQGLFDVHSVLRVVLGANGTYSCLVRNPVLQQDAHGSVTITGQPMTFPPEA

T3: 4Ig CD276 polypeptide with Fc tag (human, UniProt Q5ZPR3 29-466)
T3 construct: extracellular domain; SPR antigen; also called 4Ig CD276-Fc; not shown: Fc tag
T3 sequence (looked up): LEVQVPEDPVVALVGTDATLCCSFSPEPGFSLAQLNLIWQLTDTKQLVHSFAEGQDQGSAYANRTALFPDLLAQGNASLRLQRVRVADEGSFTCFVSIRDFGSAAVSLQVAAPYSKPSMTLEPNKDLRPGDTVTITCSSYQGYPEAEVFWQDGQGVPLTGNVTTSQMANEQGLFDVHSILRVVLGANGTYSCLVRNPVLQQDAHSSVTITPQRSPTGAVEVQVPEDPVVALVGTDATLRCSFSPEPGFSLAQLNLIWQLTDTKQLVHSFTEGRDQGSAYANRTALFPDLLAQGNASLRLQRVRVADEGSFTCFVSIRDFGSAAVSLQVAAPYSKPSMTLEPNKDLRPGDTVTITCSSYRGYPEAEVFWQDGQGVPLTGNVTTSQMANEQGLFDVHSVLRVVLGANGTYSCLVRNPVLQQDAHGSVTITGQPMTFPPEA

T4: 4Ig CD276 polypeptide with his tag (human, UniProt Q5ZPR3 29-466)
T4 construct: extracellular domain; SPR antigen; also called 4Ig CD276-his; not shown: his tag
T4 sequence (looked up): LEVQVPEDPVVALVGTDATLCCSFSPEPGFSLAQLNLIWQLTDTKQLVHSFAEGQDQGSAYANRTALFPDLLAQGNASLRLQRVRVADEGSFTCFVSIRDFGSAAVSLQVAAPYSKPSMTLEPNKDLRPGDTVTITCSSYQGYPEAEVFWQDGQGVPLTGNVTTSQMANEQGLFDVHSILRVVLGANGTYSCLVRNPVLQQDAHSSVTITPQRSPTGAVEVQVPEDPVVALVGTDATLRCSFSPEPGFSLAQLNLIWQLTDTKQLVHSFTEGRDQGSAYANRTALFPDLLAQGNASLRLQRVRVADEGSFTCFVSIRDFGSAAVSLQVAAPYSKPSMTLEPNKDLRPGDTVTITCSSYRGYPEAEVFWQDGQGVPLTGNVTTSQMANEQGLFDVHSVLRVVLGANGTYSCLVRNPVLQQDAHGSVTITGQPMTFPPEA

B1: Clone #5 (ab5) (VHH)
VHH: EVQLVESGGGLVQPGGSLRLSCAASPFPFTIYEMSWVRQASGKALEWIGYINHSGSTNYNPSLKSRVTISRDNSKNTLYLQMNSLRAEDTAMYYCAILAPDYWGQGTLVTVSS
notes: also called #5 (VH domain)
B2: Clone #8 (ab8) (Fab, V domains shown)
VH: QVQLVESGGGLVKPGGSLRLSCAASGFTFSDYYMSWIRQAPGKGLEWVSYISSSGSTIYYADSVKGRFTISRDNAKNSLYLQMNSLRAEDTAVYYCARDAPTSGWKWFAPDYWGQGALVTVSS
VL: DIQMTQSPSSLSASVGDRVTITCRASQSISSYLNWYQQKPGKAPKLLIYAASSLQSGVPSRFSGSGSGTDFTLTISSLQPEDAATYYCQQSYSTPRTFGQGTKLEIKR
notes: also called #8 (Fab)
B3: Clone #6 (ab6) (VHH)
VHH: EVQLVESGGGLVQPGGSLRLSCAASGSPFPHYEMSWVRQAPGKGLEWMGWINTNTGKSTYAQGFTGRFTISRDNSKNTLYLQMNSLRAEDTAVYYCARSGYGYYFDYWGQGTLVTVSS
notes: also called #6 (VH domain)
B4: Clone #2 (ab2) (Fab, V domains shown)
VH: QVQLVESGGGLVKPGGSLRLSCAASGFTFSDYYMSWIRQAPGKGLEWVSYISSSGSTIYYADSVKGRFTISRDNAKNSLYLQMNSLRAEDTAVYYCARRGAMGHHDGFDMWGLGTMVTVSS
VL: DIQMTQSPSSLSASVGDRVTITCRASQSISSYLNWYQQKPGKAPKLLIYAASSLQSGVPSRFSGSGSGTDFTLTISSLQPEDVAVYYCQQRSNWPLYTFGQGTKLEIKR
notes: also called #2 (Fab)
B5: Clone #1 (ab1) (Fab, V domains shown)
VH: QVQLVESGGGLVKPGGSLRLSCAASGFTFSDYYMSWIRQAPGKGLEWVSYISSSGSTIYYADSVKGRFTISRDNAKNSLYLQMNSLRAEDTAVYYCARGINFGLDIWGQGTTVTVSS
VL: DIQMTQSPSSLSASVGDRVTITCRASQSISSYLNWYQQKPGKAPKLLIYAASSLQSGVPSRFSGSGSGTDFTLTISSLQPEDVGVYYCMQALQTLFGQGTKVDIKR
notes: also called #1 (Fab)
B6: Clone #10 (ab10) (VHH)
VHH: EVQLVESGGGVVQPGRSLRLSCAASGFTFSSYAMHWVRQAPGKGLEWIGEIYHGGSTDYNPSLKSRVTISRDDSTNTLYLQMNSLRAEDTAVYYCTRGGKRLLSVYGVDVWGQGTMVTVSS
notes: also called C7; #10 (VH domain)
B7: Clone #4 (ab4) (VHH)
VHH: EVQLVESGGGLVQPGGSLRLSCAASWFDFQDYDMSWVRQAPGKGLEWIGEINHSGSTNYNPSLKSRVTISRDNSKNTLYLQMNSLRAEDTAVYYCAKIGYWGQGTLVTVSS
notes: kind VHH is used for single domain; also called #4 (VH domain)
B8: Clone #7 (ab7) (VHH)
VHH: EVQLVESGGGLVQPGGSLRLSCAASGFTFSSYAMSWVRQAPGQGLEWIGEINHSGSTNYNPSLKSRVTISRDNSKNTLYLQMNSLRAEDTAVYYCVHIDYWGQGTLVAVSS
notes: also called #7 (VH domain)
B9: Clone #3 (ab3) (Fab, V domains shown)
VH: QVQLVESGGGLVKPGGSLRLSCAASGFTFSDYYMSWIRQAPGKGLEWVSYISSSGSTIYYADSVKGRFTISRDNAKNSLYLQMNSLRAEDTAVYYCARRGGSYYARGAFDIWGQGTMVTVSS
VL: DIQMTQSPSSLSASVGDRVTITCRASQSISSYLNWYQQKPGKAPKLLIYAASSLQSGVPSRFSGSGSGTDFTLTISSLQPEDAATYYCQHRSDWPPKFTFGPGTKVDIKR
notes: also called #3 (Fab)
B10: Clone #9 (ab9) (VHH)
VHH: EVQLVESGGGVVQPGRSLRLSCAASGFTFSSYAMHWVRQAPGQGLEWVSTIGPRGINTHYADSVKGRFTISRDNSKNTLYLQMNSLRAEDTATYYCARDRVGYNSYGMDVWGQGTMVTVSS
notes: also called A10; #9 (VH domain)

Legend:
[1] = target: T1, human CD276 polypeptide (antigen of the …); test: ELISA on a human CD276 polypeptide
[2] = target: T2, recombinant CD276 polypeptide that …; test: ELISA on recombinant CD276 polypeptide with four Ig-like extracellular domains (FIG. 28)
Experimental: Clones #9 and #10, two VH binders, bound to a CD276 polypeptide with EC₅₀ values of 8.1 and 1.2 nM, respectively, as tested by ELISA. […] The molecular weight of these two clones were validated by mass spectrum. The binding kinetics of clone #9 and #10 to the 4Ig CD276 polypeptide with both his tag and Fc tag were measured by surface plasmon resonance. […] See, FIGS. 28-32.

[3] = target: T3, 4Ig CD276 polypeptide with Fc tag; test: SPR, panel CD276-Fc; sensorgrams with fits, response up to about 15 RU; which partner is on the chip is not stated
[4] = target: T4, 4Ig CD276 polypeptide with his tag; test: SPR, panel CD276-His; sensorgrams with fits, response up to about 18 RU; which partner is on the chip is not stated
[5] = target: T3, 4Ig CD276 polypeptide with Fc tag; test: SPR, panel CD276-Fc; sensorgrams with fits, response up to about 11 RU; which partner is on the chip is not stated
[6] = target: T4, 4Ig CD276 polypeptide with his tag; test: SPR, panel CD276-His; sensorgrams with fits, response up to about 12 RU; which partner is on the chip is not stated

| Binder | EC50 [1] | further results |
| --- | --- | --- |
| B1 | 1.2 nM |  |
| B2 | 4 nM |  |
| B3 | 10 nM |  |
| B4 | 46 nM |  |
| B5 | 34 nM |  |
| B6 |  | EC50 [2]: 1.2 nM; Kd [3]: 5.2 nM; Kd [4]: 7.83 nM |
| B7 | 0.9 nM |  |
| B8 | 0.6 nM |  |
| B9 | 26 nM |  |
| B10 |  | EC50 [2]: 8.1 nM; Kd [5]: 5.3 nM; Kd [6]: 6 nM |
